Measured values taken from patent publication US20150119341A1 (PALATIN TECHNOLOGIES, published 2015).
Like-named read-outs stand apart in the source and are kept apart here. Values belong to the binder of their own block, whether it stands above or below them. [ ]: non-standard residue; d: D form. Nle = CCCC[C@H](N)C(=O)O

Assays:
[1] = target: T1, recombinant human melanocortin-1 receptor (hMCR-1a) in membrane homogenates of HEK-293 cells (human, UniProt Q01726 1-317); experiment: competitive inhibition of [I125]-NDP-alpha-MSH, hMCR-1 HEK-293 membranes
T1 construct: whole, on cells; Used as membrane homogenates, not intact cells; also called hMCR-la; MC-1
T1 sequence (Q01726 whole entry): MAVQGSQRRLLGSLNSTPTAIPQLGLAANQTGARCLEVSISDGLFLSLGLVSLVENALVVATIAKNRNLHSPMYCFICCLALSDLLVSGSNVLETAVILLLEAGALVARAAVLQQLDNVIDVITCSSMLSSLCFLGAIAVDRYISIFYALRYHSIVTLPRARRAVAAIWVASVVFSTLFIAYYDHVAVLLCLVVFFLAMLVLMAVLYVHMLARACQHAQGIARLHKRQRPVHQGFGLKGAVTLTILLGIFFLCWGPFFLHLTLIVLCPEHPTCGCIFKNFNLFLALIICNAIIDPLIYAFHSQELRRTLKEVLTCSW
Description: (§1) A competitive inhibition binding assay was performed using membrane homogenates prepared from HEK-293 cells that express recombinant hMCR-la or hMCR-4 (in each instance where the h prefix refers to human), or alternatively membrane homogenates from B16-F10 mouse melanoma cells containing endogenous murine MCR-1. In the examples that follow, all MCR-1 and MCR-4 values are for human recombinant receptors, unless otherwise noted. Assays were performed in 96 well polypropylene round-bottom plates (VWR catalog number 12777-030).
(§2) Membrane homogenates were incubated with 0.1 nM [I¹²⁵]-NDP-α-MSH (Perkin Elmer) and increasing concentrations of test peptides of the present invention in buffer containing 25 mM HEPES buffer (pH 7.5) with 100 mM NaCl, 2 mM CaCl₂, 2 mM MgCl₂, 0.3 mM 1,10-phenanthroline, and 0.2% bovine serum albumin. After incubation for 90 minutes at 37° C., the assay mixture was filtered onto GF/B Unifilter plates (Perkin-Elmer catalog number 6005177) and washed with 3 mL of ice-cold buffer per well. Filters were air dried and 35 μL of scintillation cocktail added to each well. Plates were counted in a Microbeta counter for bound radioactivity. […] Maximal specific binding (100%) was defined as the difference in radioactivity (cpm) bound to cell membranes in the absence and presence of 1 μM NDP-α-MSH. Each assay was conducted in duplicate and the actual mean values are described, with results less than 0% reported as 0%. Ki values for peptides of the present invention were determined using Graph-Pad PRISM® curve-fitting software.

[2] = target: T2, recombinant human melanocortin-4 receptor (hMCR-4) in membrane homogenates of HEK-293 cells (human, UniProt P32245 1-332); experiment: competitive inhibition of [I125]-NDP-alpha-MSH, hMCR-4 HEK-293 membranes
T2 construct: whole, on cells; Used as membrane homogenates, not intact cells; also called MC-4
T2 sequence (P32245 whole entry): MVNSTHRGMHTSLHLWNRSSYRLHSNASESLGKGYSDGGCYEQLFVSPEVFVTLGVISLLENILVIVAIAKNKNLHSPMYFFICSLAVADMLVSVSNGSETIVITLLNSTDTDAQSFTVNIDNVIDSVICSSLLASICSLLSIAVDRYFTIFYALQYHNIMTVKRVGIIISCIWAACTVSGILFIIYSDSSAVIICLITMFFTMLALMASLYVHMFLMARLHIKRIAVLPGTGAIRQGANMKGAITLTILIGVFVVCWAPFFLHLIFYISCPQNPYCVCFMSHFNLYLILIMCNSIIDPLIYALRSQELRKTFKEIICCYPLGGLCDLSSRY
Description: as §1, §2

[3] = target: T3, human melanocortin-1 receptor (hMCR-1) expressed by the human melanoma cell line HBL (human, UniProt Q01726 1-317); experiment: cell-based or functional assay
T3 sequence (Q01726 whole entry): as the sequence (Q01726 whole entry) above

[4] = target: T3, human melanocortin-1 receptor (hMCR-1) …; experiment: cell-based or functional assay; remark: listed apart in the source
[5] = target: T3, human melanocortin-1 receptor (hMCR-1) …; experiment: cell-based or functional assay; remark: listed apart in the source
[6] = target: T3, human melanocortin-1 receptor (hMCR-1) …; experiment: cell-based or functional assay; remark: listed apart in the source
[7] = target: T3, human melanocortin-1 receptor (hMCR-1) …; experiment: cell-based or functional assay; remark: listed apart in the source
[8] = target: T3, human melanocortin-1 receptor (hMCR-1) …; experiment: cell-based or functional assay; remark: listed apart in the source
[9] = target: T3, human melanocortin-1 receptor (hMCR-1) …; experiment: cell-based or functional assay; remark: listed apart in the source
[10] = target: T3, human melanocortin-1 receptor (hMCR-1) …; experiment: cell-based or functional assay; remark: listed apart in the source
[11] = target: T3, human melanocortin-1 receptor (hMCR-1) …; experiment: cell-based or functional assay; remark: listed apart in the source
[12] = target: T3, human melanocortin-1 receptor (hMCR-1) …; experiment: cell-based or functional assay; remark: listed apart in the source
[13] = target: T3, human melanocortin-1 receptor (hMCR-1) …; experiment: cell-based or functional assay; remark: listed apart in the source
[14] = target: T3, human melanocortin-1 receptor (hMCR-1) …; experiment: cell-based or functional assay; remark: listed apart in the source
[15] = target: T3, human melanocortin-1 receptor (hMCR-1) …; experiment: cell-based or functional assay; remark: listed apart in the source
[16] = target: T3, human melanocortin-1 receptor (hMCR-1) …; experiment: cell-based or functional assay; remark: listed apart in the source

MC-1 EC50 (average; cAMP HBL) [3]: 0.17 nM
B2: Ac-Nle-Ala-His-D-Phe-Arg-Pro-D-Trp-NH2 (peptide)
peptide: Ac-[Nle]AH[dF]RP[dW]-NH2
SMILES: CCCC[C@H](NC(C)=O)C(=O)N[C@@H](C)C(=O)N[C@@H](Cc1c[nH]cn1)C(=O)N[C@H](Cc1ccccc1)C(=O)N[C@@H](CCCNC(=N)N)C(=O)N1CCC[C@H]1C(=O)N[C@H](Cc1c[nH]c2ccccc12)C(N)=O

MC-1 EC50 (average; cAMP HBL) [4]: 402 nM
B3: Ac-Nle-D-Phe-Arg-Ala-Trp-NH2 (peptide)
peptide: Ac-[Nle][dF]RAW-NH2
SMILES: CCCC[C@H](NC(C)=O)C(=O)N[C@H](Cc1ccccc1)C(=O)N[C@@H](CCCNC(=N)N)C(=O)N[C@@H](C)C(=O)N[C@@H](Cc1c[nH]c2ccccc12)C(N)=O

MC-1 EC50 (average; cAMP HBL) [7]: 21 nM | Ki [1]: 340 nM | Ki [2]: 10000 nM
B6: Ac-Nle-Ala-His-Phe-Arg-Gly-Trp-NH2 (peptide)
peptide: Ac-[Nle]AHFRGW-NH2
SMILES: CCCC[C@H](NC(C)=O)C(=O)N[C@@H](C)C(=O)N[C@@H](Cc1c[nH]cn1)C(=O)N[C@@H](Cc1ccccc1)C(=O)N[C@@H](CCCNC(=N)N)C(=O)NCC(=O)N[C@@H](Cc1c[nH]c2ccccc12)C(N)=O
notes: synthetic linear peptide

MC-1 EC50 (average; cAMP HBL) [9]: 9 nM | Ki [1]: 185 nM | Ki [2]: 20 nM
B8: Ac-Nle-Ala-His-D-Phe-Arg-Pro-Trp-NH2 (peptide)
peptide: Ac-[Nle]AH[dF]RPW-NH2
SMILES: CCCC[C@H](NC(C)=O)C(=O)N[C@@H](C)C(=O)N[C@@H](Cc1c[nH]cn1)C(=O)N[C@H](Cc1ccccc1)C(=O)N[C@@H](CCCNC(=N)N)C(=O)N1CCC[C@H]1C(=O)N[C@@H](Cc1c[nH]c2ccccc12)C(N)=O
notes: synthetic linear peptide

MC-1 EC50 (average; cAMP HBL) [13]: 6 nM | Ki [1]: 20 nM | Ki [2]: 1620 nM
B12: Ac-Nle-Ala-Phe-D-Phe-Arg-Ala-Trp-NH2 (peptide)
peptide: Ac-[Nle]AF[dF]RAW-NH2
SMILES: CCCC[C@H](NC(C)=O)C(=O)N[C@@H](C)C(=O)N[C@@H](Cc1ccccc1)C(=O)N[C@H](Cc1ccccc1)C(=O)N[C@@H](CCCNC(=N)N)C(=O)N[C@@H](C)C(=O)N[C@@H](Cc1c[nH]c2ccccc12)C(N)=O
notes: synthetic linear peptide

Ki [1]: 5920 nM | Ki [2]: 10000 nM
B14: Ac-Nle-His-Phe-Arg-Ala-Trp-NH2 (peptide)
peptide: Ac-[Nle]HFRAW-NH2
SMILES: CCCC[C@H](NC(C)=O)C(=O)N[C@@H](Cc1c[nH]cn1)C(=O)N[C@@H](Cc1ccccc1)C(=O)N[C@@H](CCCNC(=N)N)C(=O)N[C@@H](C)C(=O)N[C@@H](Cc1c[nH]c2ccccc12)C(N)=O
notes: synthetic linear peptide

MC-1 EC50 (average; cAMP HBL) [15]: 2 nM
B15: Ac-Nle-Ala-His-D-Phe-Arg-D-Pro-D-Trp-NH2 (peptide)
peptide: Ac-[Nle]AH[dF]R[dP][dW]-NH2
SMILES: CCCC[C@H](NC(C)=O)C(=O)N[C@@H](C)C(=O)N[C@@H](Cc1c[nH]cn1)C(=O)N[C@H](Cc1ccccc1)C(=O)N[C@@H](CCCNC(=N)N)C(=O)N1CCC[C@@H]1C(=O)N[C@H](Cc1c[nH]c2ccccc12)C(N)=O

MC-1 EC50 (average; cAMP HBL) [16]: 1 nM
B16: Ac-Nle-Ala-His-D-Phe-Arg-D-Pro-Trp-NH2 (peptide)
peptide: Ac-[Nle]AH[dF]R[dP]W-NH2
SMILES: CCCC[C@H](NC(C)=O)C(=O)N[C@@H](C)C(=O)N[C@@H](Cc1c[nH]cn1)C(=O)N[C@H](Cc1ccccc1)C(=O)N[C@@H](CCCNC(=N)N)C(=O)N1CCC[C@@H]1C(=O)N[C@@H](Cc1c[nH]c2ccccc12)C(N)=O

Further lines, the binder ahead of its results:

B1: Ac-Nle-Ala-D-Phe-Arg-Ala-Trp-NH2 (peptide)
peptide: Ac-[Nle]A[dF]RAW-NH2
SMILES: CCCC[C@H](NC(C)=O)C(=O)N[C@@H](C)C(=O)N[C@H](Cc1ccccc1)C(=O)N[C@@H](CCCNC(=N)N)C(=O)N[C@@H](C)C(=O)N[C@@H](Cc1c[nH]c2ccccc12)C(N)=O
notes: synthetic linear peptide
Ki [1]: 6680 nM | Ki [2]: 10000 nM

B4: Ac-Nle-Ala-His-D-Phe-Arg-Ala-Trp-OH (peptide)
peptide: Ac-[Nle]AH[dF]RAW-OH
SMILES: CCCC[C@H](NC(C)=O)C(=O)N[C@@H](C)C(=O)N[C@@H](Cc1c[nH]cn1)C(=O)N[C@H](Cc1ccccc1)C(=O)N[C@@H](CCCNC(=N)N)C(=O)N[C@@H](C)C(=O)N[C@@H](Cc1c[nH]c2ccccc12)C(=O)O
notes: synthetic linear peptide
MC-1 EC50 (average; cAMP HBL) [5]: 0.4 nM | Ki [1]: 6 nM | Ki [2]: 7420 nM

B5: Ac-Nle-Ala-His-Phe-Arg-Ala-Trp-NH2 (peptide)
peptide: Ac-[Nle]AHFRAW-NH2
SMILES: CCCC[C@H](NC(C)=O)C(=O)N[C@@H](C)C(=O)N[C@@H](Cc1c[nH]cn1)C(=O)N[C@@H](Cc1ccccc1)C(=O)N[C@@H](CCCNC(=N)N)C(=O)N[C@@H](C)C(=O)N[C@@H](Cc1c[nH]c2ccccc12)C(N)=O
notes: synthetic linear peptide
MC-1 EC50 (average; cAMP HBL) [6]: 4 nM | Ki [1]: 85 nM | Ki [2]: 10000 nM

B7: Ac-Nle-Ala-His-D-Phe-Arg-Ala-Trp-NH2 (peptide)
peptide: Ac-[Nle]AH[dF]RAW-NH2
SMILES: CCCC[C@H](NC(C)=O)C(=O)N[C@@H](C)C(=O)N[C@@H](Cc1c[nH]cn1)C(=O)N[C@H](Cc1ccccc1)C(=O)N[C@@H](CCCNC(=N)N)C(=O)N[C@@H](C)C(=O)N[C@@H](Cc1c[nH]c2ccccc12)C(N)=O
notes: synthetic linear peptide
MC-1 EC50 (average; cAMP HBL) [8]: 0.02 nM | Ki [1]: 0.2 nM | Ki [2]: 1740 nM

B9: Ac-Nle-Ala-His-D-Phe-Ala-Ala-Trp-NH2 (peptide)
peptide: Ac-[Nle]AH[dF]AAW-NH2
SMILES: CCCC[C@H](NC(C)=O)C(=O)N[C@@H](C)C(=O)N[C@@H](Cc1c[nH]cn1)C(=O)N[C@H](Cc1ccccc1)C(=O)N[C@@H](C)C(=O)N[C@@H](C)C(=O)N[C@@H](Cc1c[nH]c2ccccc12)C(N)=O
notes: synthetic linear peptide
MC-1 EC50 (average; cAMP HBL) [10]: 4 nM | Ki [1]: 43 nM | Ki [2]: 10000 nM

B10: Ac-Nle-Ala-Arg-D-Phe-Arg-Ala-Trp-NH2 (peptide)
peptide: Ac-[Nle]AR[dF]RAW-NH2
SMILES: CCCC[C@H](NC(C)=O)C(=O)N[C@@H](C)C(=O)N[C@@H](CCCNC(=N)N)C(=O)N[C@H](Cc1ccccc1)C(=O)N[C@@H](CCCNC(=N)N)C(=O)N[C@@H](C)C(=O)N[C@@H](Cc1c[nH]c2ccccc12)C(N)=O
notes: synthetic linear peptide
MC-1 EC50 (average; cAMP HBL) [11]: 0.04 nM | Ki [1]: 0.45 nM | Ki [2]: 1180 nM

B11: Ac-Nle-Ala-Ala-D-Phe-Arg-Ala-Trp-NH2 (peptide)
peptide: Ac-[Nle]AA[dF]RAW-NH2
SMILES: CCCC[C@H](NC(C)=O)C(=O)N[C@@H](C)C(=O)N[C@@H](C)C(=O)N[C@H](Cc1ccccc1)C(=O)N[C@@H](CCCNC(=N)N)C(=O)N[C@@H](C)C(=O)N[C@@H](Cc1c[nH]c2ccccc12)C(N)=O
notes: synthetic linear peptide
MC-1 EC50 (average; cAMP HBL) [12]: 8 nM | Ki [1]: 195 nM | Ki [2]: 10000 nM

B13: Ac-Nle-Ala-His-D-Phe-Arg-Ala-D-Trp-NH2 (peptide)
peptide: Ac-[Nle]AH[dF]RA[dW]-NH2
SMILES: CCCC[C@H](NC(C)=O)C(=O)N[C@@H](C)C(=O)N[C@@H](Cc1c[nH]cn1)C(=O)N[C@H](Cc1ccccc1)C(=O)N[C@@H](CCCNC(=N)N)C(=O)N[C@@H](C)C(=O)N[C@H](Cc1c[nH]c2ccccc12)C(N)=O
MC-1 EC50 (average; cAMP HBL) [14]: 0.6 nM
